Experimental data as given in US7135170B2 (ZymoGenetics, Inc., priority 2002, dated 2006).

B1: Muzcytor19-Ig: murine zcytor19-Ig homodimeric soluble receptor (protein)
chain: RPRLAPPRNVTLFSQNFTVYLTWLPGLGSPPNVTYFVTYQSYIKTGWRPVEHCAGIKALVCPLMCLKKLNLYSKFKGRVQAASAHGRSPRVESRYLEYLFDVELAPPTLVLTQMEKILRVNATYQLPPCMPSLELKYQVEFWKEGLGSKTLFPDTPYGQPVQIPLQQGASRRHCLSARTVYTLIDIKYSQFSEPSCIFLEAPGDKRA
modifications: left off: small tags and cut ends
notes: murine zcytor19-Ig homodimeric soluble receptor
B2: MetIL-29-PEG: E. coli derived IL-29 with N-terminal Met, conjugated to PEG (conjugate, UniProt Q8IU54 20-200, looked up)
Interferon lambda-1: GPVPTSKPTTTGKGCHIGRFKSLSPQELASFKKARDALEESLKLKNWSCSSPVFPGNWDLRLLQVRERPVALEAELALTLKVLEAAAGPALEDVLDQPLHTLHHILSQLQACIQPQPTAGPRPRGRLHHWLHRLQEAPKKESAGCLEASVTFNLFRLLTRDLKYVADGNLCLRTSTHPEST
modifications: N-terminal Met; PEG
notes: E. coli derived IL-29 with N-terminal Met, conjugated to PEG
B3: Huzcytor19-Fc: human zcytor19-Fc homodimeric soluble receptor (protein)
chain: RPRLAPPQNVTLLSQNFSVYLTWLPGLGNPQDVTYFVAYQSSPTRRRWREVEECAGTKELLCSMMCLKKQDLYNKFKGRVRTVSPSSKSPWVESEYLDYLFEVEPAPPVLVLTQTEEILSANATYQLPPCMPPLDLKYEVAFWKEGAGNKTLFPVTPHGQPVQITLQPAASEHHCLSARTIYTFSVPKYSKFSKPTCFLLEVPEAN
modifications: left off: a dimerising Fc or GST
notes: human zcytor19-Fc homodimeric soluble receptor

Columns and labels:
[1] = molecular target: T1, zcyto24 (Mus musculus, UniProt Q4VK74); experiment: Soluble receptor inhibition of ligand-induced ISRE signaling, 293 HEK cells overexpressing zcytor19: zcyto24; type: cell-based; settings: ligand Zcyto24 10 ng/ml; soluble receptor 10 micrograms/ml; 4-hour
T1 construct: The mature polypeptide comprises amino acid residue 29 (Asp) to amino acid residue 202 (Val)
T1 sequence (Q4VK74 20-193): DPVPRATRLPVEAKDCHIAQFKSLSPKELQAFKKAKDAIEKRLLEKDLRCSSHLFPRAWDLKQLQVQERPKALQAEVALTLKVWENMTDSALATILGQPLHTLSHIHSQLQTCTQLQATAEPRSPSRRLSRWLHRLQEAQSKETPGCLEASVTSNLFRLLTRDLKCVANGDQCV
From the text: (§1) A signal transduction reporter assay can be used to show the inhibitor properties of zcytor19-Fc4 homodimeric and zcytor19-Fc/CRF2-4-Fc heterodimeric soluble receptors on zcyto20, zcyto21and zcyto24 signaling. Human embryonal kidney (HEK) cells overexpressing the zcytor19 receptor are transfected with a reporter plasmid containing an interferon-stimulated response element (ISRE) driving transcription of a luciferase reporter gene. Luciferase activity following stimulation of transfected cells with ligands (including zcyto20 (SEQ ID NO:18), zcyto21 (SEQ ID NO:20), zcyto24 (SEQ ID NO:8)) reflects the interaction of the ligand with soluble receptor.
(§2) 293 HEK cells overexpressing zcytor19 were transfected as follows: 700,000 293 cells/well (6 well plates) were plated approximately 18 h prior to transfection in 2 milliliters DMEM+10% fetal bovine serum. Per well, 1 microgram pISRE-Luciferase DNA (Stratagene) and 1 microgram pIRES2-EGFP DNA (Clontech,) were added to 6 microliters Fugene 6 reagent (Roche Biochemicals) in a total of 100 microliters DMEM. This transfection mix was added 30 minutes later to the pre-plated 293 cells. Twenty-four hours later the transfected cells were removed from the plate using trypsin-EDTA and replated at approximately 25,000 cells/well in 96 well microtiter plates. Approximately 18 h prior to ligand stimulation, media was changed to DMEM+0.5% FBS.
(§3) The signal transduction reporter assays were done as follows: Following an 18 h incubation at 37° C. in DMEM+0.5% FBS, transfected cells were stimulated with 10 ng/ml zcyto20, zcyto2l or zcyto24 and 10 micrograms/ml of the following soluble receptors; human zcytor19-Fc homodimer, human zcytor19-Fc/human CRF2-4-Fc heterodimer, human CRF2-4-Fc homodimer, murine zcytor19-Ig homodimer. Following a 4-hour incubation at 37° C., the cells were lysed, and the relative light units (RLU) were measured on a luminometer after addition of a luciferase substrate. The results obtained are shown as the percent inhibition of ligand-induced signaling in the presence of soluble receptor relative to the signaling in the presence of PBS alone.

[2] = molecular target: zcyto21 (Homo sapiens, UniProt Q8IU54); experiment: Soluble receptor inhibition of ligand-induced ISRE signaling, 293 HEK cells overexpressing zcytor19: zcyto21; type: cell-based; settings: ligand Zcyto21 10 ng/ml; soluble receptor 10 micrograms/ml; 4-hour
From the text: as §1, §2, §3

[3] = molecular target: T2, zcyto20 (Homo sapiens, UniProt Q8IZJ0); experiment: Soluble receptor inhibition of ligand-induced ISRE signaling, 293 HEK cells overexpressing zcytor19: zcyto20; type: cell-based; settings: for Percent Inhibition of Ligand-induced ISRE Signaling by Soluble Receptors: ligand Zcyto20 10 ng/ml, soluble receptor 10 micrograms/ml, 4-hour; for inhibition of zcyto20, zcyto21 and zcyto24-induced signaling: text summary over the three ligands
T2 sequence (Q8IZJ0 26-200): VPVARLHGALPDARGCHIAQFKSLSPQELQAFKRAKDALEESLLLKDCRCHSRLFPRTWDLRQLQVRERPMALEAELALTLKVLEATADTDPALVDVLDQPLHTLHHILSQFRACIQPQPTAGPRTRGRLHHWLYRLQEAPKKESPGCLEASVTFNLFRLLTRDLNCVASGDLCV
From the text: as §1, §2, §3

[4] = system: ISG gene expression (OAS, Pkr, Mx1) in liver, spleen and blood; experiment: ISG gene expression in liver, spleen and blood of injected mice (real-time PCR); type: in vivo, mouse; settings: liver, 100 μg i.v.; for PKR: mice (Naive 3.70); for OAS: mice (Naive 6.60); for Mx1: mice (Naive 10.98)
Protocol: Mice were sacrificed at various time points (1 hr-48 hr). Spleens and livers were isolated from mice, and RNA was isolated. RNA was also isolated from the blood cells. The cells were pelleted and RNA isolated from pellets using RNAEasy®-kit (Qiagen). RNA was treated with DNase (Amicon) to rid RNA of any contaminating DNA. cDNA was generated using Perkin-Elmer RT mix (Perkin-Elmer). ISG gene induction was measured by real-time PCR using primers and probes specific for mouse OAS, Pkr and Mx1. To obtain quantitative data, HPRT real-time PCR was duplexed with ISG PCR. A standard curve was calculated using known amounts of IFN-stimulated mouse PBLs. All data are shown as expression relative to internal HPRT expression.
Results shown are fold expression relative to HPRT gene expression. […] The data shown is the average expression from 5 different animals/group.
Mice were injected with 100 μg of proteins i.v. Data shown is fold expression over HPRT expression from livers of mice. Similar data was obtained from blood and spleens of mice.

| Molecule | Percent Inhibition of Ligand-induced ISRE Signaling by Soluble Receptors [1] [%] | Percent Inhibition of Ligand-induced ISRE Signaling by Soluble Receptors [2] [%] | Percent Inhibition of Ligand-induced ISRE Signaling by Soluble Receptors [3] [%] | inhibition of zcyto20, zcyto21 and zcyto24-induced signaling [3] | also measured |
| --- | --- | --- | --- | --- | --- |
| HuCRF2-4-Fc: human CRF2-4-Fc homodimeric soluble receptor | 82 | 79 | 80 | No significant effects |  |
| Huzcytor19-Fc/huCRF2-4-Fc: human zcytor19-Fc/human CRF2-4-Fc heterodimeric soluble receptor | 47 | 16 | 16 |  |  |
| B1 | 89 | 103 | 91 | No significant effects |  |
| B2 |  |  |  |  | PKR ([4]; 3 hr): 18.24 fold expression over HPRT expression; OAS ([4]; 3 hr): 91.29 fold expression over HPRT expression; Mx1 ([4]; 3 hr): 537.51 fold expression over HPRT expression; PKR ([4]; 6 hr): 13.93 fold expression over HPRT expression; OAS ([4]; 6 hr): 65.93 fold expression over HPRT expression; Mx1 ([4]; 6 hr): 124.99 fold expression over HPRT expression; PKR ([4]; 12 hr): 4.99 fold expression over HPRT expression; OAS ([4]; 12 hr): 54.04 fold expression over HPRT expression; Mx1 ([4]; 12 hr): 33.58 fold expression over HPRT expression; PKR ([4]; 24 hr): 3.77 fold expression over HPRT expression; OAS ([4]; 24 hr): 20.81 fold expression over HPRT expression; Mx1 ([4]; 24 hr): 35.82 fold expression over HPRT expression |
| B3 | 90 | 45 | 92 |  |  |
